According to US12371675B2, “Process and microorganism for synthesis of adipic acid from carboxylic acids” (THE GOVERNING COUNCIL OF THE UNIVERSITY OF TORONTO, priority 2015, dated 2025):

Key:
[1] = Whole-cell biotransformation of muconic acid by E. coli expressing EREDs; assay type: cell-based; conditions: 0.7 mM, 24-hr incubation
Method: After a 24-hr incubation, no muconic acid or 2-hexenedioic acid were detected in the culture, and a 99% yield of adipic acid was obtained (FIGS. 8a, 8b, and 8c). […] The 3-hexenedioic acid-like compound appears to be an inefficient substrate for these EREDS. This is similar to the mutated 2,4-dienoyl-CoA reductases from E. coli, which catalyze hydrogenation of 2,4-dienoyl CoA into 3-enoyl CoA (Tu, X., Hubbard, P. A., Kim, J. J. P. & Schulz, H. Two distinct proton donors at the active site of Escherichia coli 2,4-dienoyl-CoA reductase are responsible for the formation of different products. Biochemistry 47, 1167-1175 (2008).).

[2] = In vitro reductase activity of purified EREDs, NADH oxidation at 340 nm; assay type: biochemical
Method: (§1) The C═C reducing activity of EREDs was examined. Enzyme activity of purified EREDs was measured spectrophotometrically in 96-well plates by following incubation for 3-5 min at 30° C. in the anaerobic chamber as described in M. Buhler, H. Simon, Hoppe-Seyler's Zeitschrift fur Physiologische Chemie 1982, 363, 609-625. Buffers and reagents were degassed and sparged with Ar. Reaction mixture contained potassium phosphate (100 mM and pH 7.0), NADH (0.5 mM), indicated substrates, and proteins (0.1-50 μg) in a final volume of 200 μL. Enzyme reactions were monitored by following the decrease in absorbance at 340 nm (ε340 nm=6,220/M·cm) due to oxidation of NADH to NAD+.
(§2) For in vitro biochemical characterization, enzyme activities of purified EREDs were measured with 2-hexenedioic acid, cis-cis-muconic acid, trans-trans muconic acid, trans-cinnamic acid, trans-2-methyl-2-butenoic acid, trans-2-butenoic acid, acrolein, 2-cyclohexen-1-one, and 3-methyl-2-cyclohexenone. […] [Feng, J. et al. Discovery and Characterization of BlsE, a Radical S-Adenosyl-L-methionine Decarboxylase Involved in the Blasticidin S Biosynthetic Pathway. PLoS ONE 8 (2013)].

[3] = as above; assay type: biochemical; conditions: for activity against 2-hexenedioic acid: purified enzyme, anaerobic, NADH, aqueous buffer
Method: as §1, §2
To increase the dissolved substrate concentration, 2-hexenedioic acid was dissolved in a reaction mixture containing […] (final concentration) isopropanol, and kinetic constants of EREDBC and EREDCA were determined.

[4] = Oxygen tolerance (residual activity) of purified EREDs on storage; assay type: physicochemical; conditions: for retained initial activity, storage in the absence of oxygen / retained initial activity, storage in the presence of air: three days; for retained initial activity, storage in the absence of oxygen: 4° C.
Method: Purified EREDs were placed in 5 mL glass tubes tightly capped with air-tight rubber stoppers. Anaerobic tubes were filled with anaerobic gas mixture (80% N2, 10% H2, and 10% CO2) and aerobic tubes were filled with atmospheric air. The tubes were kept on ice for a week and a small aliquots of EREDs (5 ul) were withdrawn by a syringe every day to measure residual activity in a reaction mixture containing 100 mM potassium phosphate buffer (pH 7.0), 0.5 mM NADH, indicated substrates (0.25 mM 2-hexenedioic acid for EREDBC and 0.75 mM cinnamic acid for EREDCA, and protein (1 μg) in a final volume of 200 μL.

[5] = AT activity coupled with alanine and glutamate dehydrogenases; assay type: biochemical; conditions: 10 mM adipaldehyde, alanine and glutamate amino-donors; ND = no activity was detected
[6] = purified enzyme, anaerobic, NADH

Row | Molecule | yield of adipic acid from cis,cis-muconic acid [1] [%] | yield of adipic acid from trans,trans-muconic acid [1] [%] | activity against trans-2-butenoic acid [2, 6] [U/mg protein] | activity against trans-cinnamic acid [2, 6] [U/mg protein] | activity against 2-hexenedioic acid [3] | residual activity, storage in the presence of air ([4]; one day, air (21% oxygen)) [%] | retained initial activity, storage in the absence of oxygen [4] [%] | retained initial activity, storage in the presence of air ([4]; air (21% oxygen)) | Activity [U/mg protein] trans-Cinnamic acid [1.0 mM] ([2]; 1.0 mM, titrated with 1N NaOH) [U/mg protein] | Activity [U/mg protein] Acrolein [15 mM] ([2]; 15 mM) [U/mg protein] | Activity [U/mg protein] trans-2-Butenoic acid [50 mM] ([2]; 50 mM) [U/mg protein] | Activity [U/mg protein] 2-Cyclohexen-1-one [200 mM] ([2]; 200 mM) [U/mg protein] | Activity [U/mg protein] 3-Methyl-2-cyclohexenone [200 mM] ([2]; 200 mM) [U/mg protein] | activity against 2-cyclohexen-1-one [2, 6] [U/mg protein] | activity against 3-methyl-2-cyclohexenone [2, 6] [U/mg protein] | activity against acrolein [2, 6] [U/mg protein] | Activity [U/mg protein] 2-Hexenedioic acid [29 mM] ([3]; 29 mM, dissolved in aqueous buffer) [U/mg protein] | Activity [U/mg protein] 2-Hexenedioic acid [35 mM] ([3]; 35 mM, dissolved in 0.25 mM isopropanol) [U/mg protein] | Adipaldehyde 10 mM U/mg [5] [U/mg]
1 | EREDCA: 2-enoate reductase (ERED) from Clostridium acetobutylicum DSM 1731 (protein) MNKYKKLFEPIKIGKCEIKNRFALAPMGPLGLADSEGGFNQRGIDYYTERAKGGTGLIITGVTFVDNEVEEHGMPNCPCPTHNPVQFVRTGREMTERIHAYNSKVFLQMSGGFGRVTIPTNLGEFPPVAPSPIQHRWLDKTCRELTVDEIKSIVKKFGEGAFNAKRAGFDGVQIHAVHEGYLIDQFAISLFNHRTDEYGGSLENRLRFAREIVEEIKNRCGEDFPVTLRYSPKSFIKDLRDGALPGEEFVEKGRDLDEGVEAAKLLVSYGYDALDTDVGSYDSWWWSHPPMYQEKGLYRKYAKLMKDTVDVPVICAGRMDDPDMALEAVENGTCDVISLGRPLLADPDYVNKLRSNKCKSIRPCISCQEGCMGRVQHYSMLNCAVNPQACKERANSLTPIIKSKKVLIVGGGVAGCEAARVLALRGHEPVLYEKSNRLGGNLIPGGAPSFKEDDIALADWYTNTLKELNVEVNLNSEVTKEQILNSKFDTVIVATGSTPKVFPLGDDEKVFTAAEVLLGQKDPGETTVVVGGGLVGCELALDLAKKGKKVTIVEALNKILALNGPLCSANSEMLQKLIPFNGIDVKANSKVKGYKNGLLKMETENGIEELPCDSVILSVGYKEENSLYKELEFEIPEIYLLGDARKVSNIMYGIWDAFEVANHI | 99 | 99 | 0.008 | 3.5 | up to 0.05 U/mg protein | 30 | 19 | completely inactivated | – | – | – | – | – | – | – | – | – | – | –
2 | EREDBC: 2-enoate reductase (ERED) from Bacillus coagulans 36D1 (protein) MKYKKLFETVKIRNVELKNRYAMAPMGPLGLADAEGGFNQRGIEYYTARARGGTALIITGVTFVDNEVEEHGMPNVPCPTHNPVHFVRTSKEMTERIHAYDSKIFLQMSAGFGRVTIPTNLGEYPPVAPSPIPHRWLDKTCRELTVEEIHSIVRKFGDGAFNAKRAGFDGVQIHAVHEGYLLDQFAIAFFNKRTDAYGGPLENRLRFAREIVEEIKQRCGEDFPVTLRFSPKSFIKDWREGALPGEEFEEKGRDLDEGIEAAKLLVSYGYDALDVDVGSYDSWWWSHPPMYQKKGLYIPYARLVKEAVDVPVLCAGRMDNPDLALAALEDGACDIISLGRPLLADPDYVNKLRIGQVADIRPCLSCHEGCMGRIQEYSSLGCAVNPAACREKEAALTPALKKKRVLIAGGGVAGCEAARVLALRGHEPVIFEKSNRLGGNLIPGGAPDFKEDDLALVAWYEHTLERLGVEIHLNTALTKEEILAANVDAVLIATGSNPKILPLDGKNKVFTAEDVLLDKVDAGQHVVIVGGGLVGCELALNLAEKGKDVSLVEMQDKLLAVNGPLCHANSDMLERLVPFKGVQVYTSSKIVDTTEKTAVVDVDGELREIEADSIVLAVGYSAEKSLYEDLKFEVADLHVVGDARKVANIMYAIWDAYEVAANL | 99 | 99 | 0.036 | 0.39 | 0.09 U/mg protein | – | 35 | 33% | 0.39 ± 0.001 | 0.036 ± 0.005 | 0.037 ± 0.010 | 0.08 ± 0.03 | 0.13 ± 0.03 | 0.08 | 0.13 | 0.037 | 0.09 ± 0.02 | 2.3 ± 0.04 | –
3 | EREDCK: 2-enoate reductase (ERED) from Clostridium kluyveri DSM 555 (protein) MKNKSLFEPIKIGNMEVKNKIAMAPMGAFGLVDNECCFNQRAVDYYVERAKGGTGLIITSVVKVENELDKVLTGVLPITSINPAKFIMTSSEMTERVHAYGSKIFLQLSMGFGRSGAPGGLLTSQPVSASAVPNYWDPTVTCRELTTSEVEWIVEKFAEGAKIAHKAGFDGVEIHAVHEGYLLDQFTLSIFNRRTDKYGGDLRGRLQLPIEIVEAIKTEVGSNFPVGLRYSVKSCIKDWGQGGLAEEDYVEKGRDLEEGLEAAKILEAAGYDAFNADLGTYDAWYWAHPPLYQKDGLYLPYTKELKKVVKIPVMVAGKMGMPDVAEGALEDEAADMVTLGRPLLCDAYWPKKVFTGQIDRIRPCIGCHTGCMGRGFEGRPLSCTVNPAAGRERYYEVKPAAAPKKVMIVGGGVAGMEAARITAMRGHKVSMYEGTKELGGQVIPASVPDFKIDDRRLLDWYRNEMKELKVKLVLDTNVTEEVVEKEKPDVVIIATGAKEIKLNLPGIEKDKVATVIEVLKGSKQVGENVLMVGGGLAGCETALYLAKQGKKVTIIEARDTILNAGKPVPHMNKIMLIDLLKNSGVNIITETSLLEVTDRGAILIDNKFKKQNIDADTVVIAVGFKADRELYNKLRDKVADLYLVGDANESANIMNAIWSANEIALNC | – | 99 | – | – | – | – | – | – | – | – | – | – | – | – | – | – | – | – | –
4 | gabT: aminotransferase (AT) from Escherichia coli (protein) MNSNKELMQRRSQAIPRGVGQIHPIFADRAENCRVWDVEGREYLDFAGGIAVLNTGHLHPKVVAAVEAQLKKLSHTCFQVLAYEPYLELCEIMNQKVPGDFAKKTLLVTTGSEAVENAVKIARAATKRSGTIAFSGAYHGRTHYTLALTGKVNPYSAGMGLMPGHVYRALYPCPLHGISEDDAIASIHRIFKNDAAPEDIAAIVIEPVQGEGGFYASSPAFMQRLRALCDEHGIMLIADEVQSGAGRTGTLFAMEQMGVAPDLTTFAKSIAGGFPLAGVTGRAEVMDAVAPGGLGGTYAGNPIACVAALEVLKVFEQENLLQKANDLGQKLKDGLLAIAEKHPEIGDVRGLGAMIAIELFEDGDHNKPDAKLTAEIVARARDKGLILLSCGPYYNVLRILVPLTIEDAQIRQGLEIISQCFDEAKQ | – | – | – | – | – | – | – | – | – | – | – | – | – | – | – | – | – | – | 0.337 ± 0.008
